Data taken from patent US20250312444A1 (BEIJING TUO JIE BIOPHARMACEUTICAL, published 2025).

T1: human RXFP1 receptor (human, UniProt Q9HBX9 1-757)
T1 sequence (looked up): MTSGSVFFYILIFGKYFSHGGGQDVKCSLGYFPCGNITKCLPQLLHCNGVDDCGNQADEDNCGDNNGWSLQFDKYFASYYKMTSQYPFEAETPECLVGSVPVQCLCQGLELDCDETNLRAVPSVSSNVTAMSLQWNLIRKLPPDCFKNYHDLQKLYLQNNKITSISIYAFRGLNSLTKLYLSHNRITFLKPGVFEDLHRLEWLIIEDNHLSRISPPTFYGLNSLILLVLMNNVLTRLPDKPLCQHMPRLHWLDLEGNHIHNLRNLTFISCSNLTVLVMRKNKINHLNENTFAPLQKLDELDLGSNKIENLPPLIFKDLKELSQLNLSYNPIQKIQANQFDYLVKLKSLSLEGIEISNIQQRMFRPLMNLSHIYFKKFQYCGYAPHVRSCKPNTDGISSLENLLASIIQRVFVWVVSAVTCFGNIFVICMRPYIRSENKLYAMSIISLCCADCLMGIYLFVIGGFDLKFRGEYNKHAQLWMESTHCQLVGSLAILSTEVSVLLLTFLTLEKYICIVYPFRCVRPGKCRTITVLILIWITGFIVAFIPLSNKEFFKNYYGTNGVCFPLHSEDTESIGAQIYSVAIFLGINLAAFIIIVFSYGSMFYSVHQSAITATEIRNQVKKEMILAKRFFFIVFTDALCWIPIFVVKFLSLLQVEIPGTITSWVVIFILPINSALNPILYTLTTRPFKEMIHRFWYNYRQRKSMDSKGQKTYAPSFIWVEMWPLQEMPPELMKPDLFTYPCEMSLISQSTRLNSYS

T2: rat serum albumin (rat)
T2 chain: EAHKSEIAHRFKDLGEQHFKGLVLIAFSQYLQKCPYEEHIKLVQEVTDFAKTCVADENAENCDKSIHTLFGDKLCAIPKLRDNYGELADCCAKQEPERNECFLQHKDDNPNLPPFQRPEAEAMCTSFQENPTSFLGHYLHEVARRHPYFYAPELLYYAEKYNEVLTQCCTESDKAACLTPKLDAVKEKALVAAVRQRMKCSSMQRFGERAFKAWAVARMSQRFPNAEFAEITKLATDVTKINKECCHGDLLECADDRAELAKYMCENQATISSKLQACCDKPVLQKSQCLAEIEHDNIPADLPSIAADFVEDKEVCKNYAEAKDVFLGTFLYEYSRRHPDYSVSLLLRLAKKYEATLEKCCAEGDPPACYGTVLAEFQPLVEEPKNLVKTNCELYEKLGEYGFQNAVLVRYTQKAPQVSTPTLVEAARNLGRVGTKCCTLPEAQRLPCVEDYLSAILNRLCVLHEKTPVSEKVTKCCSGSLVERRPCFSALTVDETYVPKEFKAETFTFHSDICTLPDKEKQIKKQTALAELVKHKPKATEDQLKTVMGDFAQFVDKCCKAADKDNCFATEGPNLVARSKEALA

T3: monkey serum albumin (CySA) (monkey)
T3 chain: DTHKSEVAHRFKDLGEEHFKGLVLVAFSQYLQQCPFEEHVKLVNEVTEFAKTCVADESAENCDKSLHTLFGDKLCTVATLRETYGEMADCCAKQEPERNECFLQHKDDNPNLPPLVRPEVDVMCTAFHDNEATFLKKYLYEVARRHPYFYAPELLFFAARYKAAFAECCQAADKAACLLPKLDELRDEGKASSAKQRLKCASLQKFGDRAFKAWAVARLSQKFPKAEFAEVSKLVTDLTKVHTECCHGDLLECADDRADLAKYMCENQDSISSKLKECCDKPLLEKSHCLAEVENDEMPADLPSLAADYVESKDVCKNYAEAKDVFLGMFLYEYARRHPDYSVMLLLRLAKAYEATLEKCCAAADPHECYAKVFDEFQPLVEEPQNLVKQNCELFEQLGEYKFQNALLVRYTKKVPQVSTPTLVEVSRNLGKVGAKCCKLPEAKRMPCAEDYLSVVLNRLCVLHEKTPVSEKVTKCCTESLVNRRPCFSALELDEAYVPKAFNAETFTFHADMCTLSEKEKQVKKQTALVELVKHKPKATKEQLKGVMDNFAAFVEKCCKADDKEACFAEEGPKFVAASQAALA


Experiments:
human RXFP1 receptor = molecular target: T1, human RXFP1 receptor; test: cell-based or functional assay
rat serum albumin [1] = molecular target: T2, rat serum albumin; test: SPR Biacore T200, fusion protein captured by anti-VHH antibody, albumin as analyte
Protocol: (§1) Coupling of an anti-VHH antibody (MonoRab™ Rabbit Anti-Camelid VHH Cocktail, Genescript, Cat No. A02014) to an S series CM5 sensor chip (GE, Cat No. 29-1049-88) was performed using an amino coupling kit (GE, Cat No. BR-1000-50). The antibody was diluted to 10 μg/mL with 10 mM sodium acetate (pH 4.5) (GE, Cat No. BR-1003-50). After the CM5 chip was activated with EDC/NHS, the diluted anti-VHH antibody was flowed over the chip to reach a surface response value of about 5000 RU, and then the chip was blocked with ethanolamine for later use.
(§2) The albumin from each species was serially diluted in a gradient with 1XHBS-EP (10 mM HEPES, pH 7.4, 150 mM NaCl, 3 mM EDTA, 0.05% Surfactant P20). The test fusion protein molecule was captured using the anti-VHH antibody-coupled chip, with a response value of about 30 RU. Then, different concentrations of serum albumin were flowed over the surface of the chip for 3 min at a flow rate of 50 μL/min, with a dissociation time of 1-10 min (the dissociation time varied depending on the species of albumin). After the end of each cycle, the chip was regenerated using 10 mM glycine-hydrochloric acid (pH 1.5) (GE, Cat No. BR-1003-54). The reaction signals were detected in real-time using Biacore T200 (GE) to obtain the association and dissociation curves, and the data obtained were fitted with a Langmuir 1:1 binding model using the BIAevaluation version 4.1 software at appropriate concentration points to obtain the affinity values.

[2] = molecular target: human serum albumin (HSA) (human); test: as above
Protocol: as §1, §2

[3] = molecular target: T3, monkey serum albumin (CySA); test: phage supernatant ELISA, albumin coated
[4] = molecular target: human serum albumin (HSA) (human); test: phage supernatant ELISA, albumin coated
[5] = molecular target: mouse serum albumin (mSA) (mouse); test: phage supernatant ELISA, albumin coated
rat serum albumin [6] = molecular target: T2, rat serum albumin; test: SPR Biacore T200, albumin amine-coupled, fusion protein as analyte
Protocol: (§3) Coupling of serum albumins from different species to an S series CM5 sensor chip (GE, Cat. 29-1049-88) was performed using an amino coupling kit (GE, Cat No. BR-1000-50). The albumin from each species was diluted to 2 μg/mL. After the CM5 chip was activated with EDC/NHS, the diluted albumin was flowed over the chip to reach a surface response value of about 200 (180 to 230) RU, and then the chip was blocked with ethanolamine. The blank control channel also needed to be activated with EDC/NHS and blocked with ethanolamine. […] The samples of 0051 and 0054 at different concentrations were separately flowed through the albumin-coupled and blank channels for 3 min at a flow rate of 50 μL/min, with a dissociation time of 4 min. After the end of each cycle, the chip was regenerated using 10 mM glycine-hydrochloric acid (pH 1.5) (GE, Cat. #BR-1003-54). The reaction signals were detected in real-time using Biacore T200 (GE) to obtain the association and dissociation curves, and the data obtained were fitted with a Langmuir 1:1 binding model using the BIAevaluation version 4.1 software at appropriate concentration points to obtain the affinity values.

[7] = molecular target: human serum albumin (HSA) (human); test: as above
Protocol: as §3

[8] = molecular target: mouse serum albumin (mSA) (mouse); test: as above
Protocol: as §3

Binder	EC50 (nM), cAMP production in THP1 cells, 1% HSA (human RXFP1 receptor) [nM]	EC50 (nM), cAMP production in THP1 cells, without HSA (human RXFP1 receptor) [nM]	Kd (rat serum albumin [1]) [nM]	koff (rat serum albumin [1]) [s⁻¹]	kon (rat serum albumin [1]) [M⁻¹ s⁻¹]	Kd [2] [nM]	koff [2] [s⁻¹]	kon [2] [M⁻¹ s⁻¹]	OD450 [3] [OD450]	OD450 [4] [OD450]	OD450 [5] [OD450]	Kd (rat serum albumin [6]) [nM]	koff (rat serum albumin [6]) [s⁻¹]	kon (rat serum albumin [6]) [M⁻¹ s⁻¹]	Kd [7] [nM]	koff [7] [s⁻¹]	kon [7] [M⁻¹ s⁻¹]	Kd [8] [nM]	koff [8] [s⁻¹]	kon [8] [M⁻¹ s⁻¹]
0052 (other, Single-chain fusion: anti-HSA VHH, linker, relaxin-2 B chain, linker, relaxin-2 A chain; also called fusion protein 0052) EVQLLESGGGLVQPGGSLRLSCAASGFTFLTSCMGWFRQAPGKEREGVSSIYTVGGSTFYTNSVKGRFTISRDNSKNTLYLQMNSLRAEDTAVYYCAAGSPARCRLRDPTTFDYWGQGTLVTVSSPGPAPGPAPGPAPGPAPGPAPGPAPGPAPGPASWMEEVIKLCGRELVRAQIAICGMSTWSGGGSGGSGGGQLYSALANKCCHVGCTKRSLARFC	21.5	5.22	145	0.00599	41300	9.65	0.000867	89900												
0065 (other, Single-chain fusion: anti-HSA VHH, linker, relaxin-2 B chain, linker, relaxin-2 A chain; also called fusion protein 0065) EVQLLESGGGLVQPGGSLRLSCAASGFTFLTSCMGWFRQAPGKEREGVSSIYTVGGSTFYTNSVKGRFTISRDNSKNTLYLQMNSLRPEDTAVYYCAAGSPARCRLRDPTTFDYWGQGTLVTVSSGGGGQGGGGQGGGGQGGGGQGGGGQSWMEEVIKLCGRELVRAQIAICGMSTWSGGGSGGSGGGQLYSALANKCCHVGCTKRSLARFC	23	2.08	159	0.00567	35700	9.68	0.000797	82300												
0064 (other, Single-chain fusion: anti-HSA VHH, linker, relaxin-2 B chain, linker, relaxin-2 A chain; also called fusion protein 0064) EVQLLESGGGLVQPGGSLRLSCAASGNTYLTSCMGWFRQAPGKEREGVSSIYTVGGSTFYTNSVKGRFTISRDNSKNTLYLQMNSLQPEDTAVYYCAAGSPARCRLRDPTTFDYWGQGTLVTVSSGGGGQGGGGQGGGGQGGGGQGGGGQSWMEEVIKLCGRELVRAQIAICGMSTWSGGGSGGSGGGQLYSALANKCCHVGCTKRSLARFC	19.8	8.5	58.5	0.00579	98900	5.59	0.00086	154000												
#7aHSA (VHH, also called clone #7) VHH: HVQLVESGGGSVQAGGSLRVSCVASGNTYLTSCMGWFRQAPGKEREGVASIYTVGGSTFYTNSVKGRFTISRDNAKNTVYLQMNSLQPEDTAMYYCAAGSPARCRLRDPTTFDYWGQGTQVTVSS									1.75	1.69	1.12									
0054 (other, also called positive control 0054; positive control molecule 0054) EVQLLESGGGLVQPGGSLRLSCAASGRYIDETAVAWFRQAPGKGREFVAGIGGGVDITYYADSVKGRFTISRDNSKNTLYLQMNSLRPEDTAVYYCAARPGRPLITSKVADLYPYWGQGTLVTVSSGGGGQGGGGQGGGGQGGGGQGGGGQSWMEEVIKLCGRELVRAQIAICGMSTWSGGGSGGSGGGQLYSALANKCCHVGCTKRSLARFC			183	0.0113	61500	15.8	0.000563	35700				1.06	0.00246	2.31e+06	0.099	0.000181	1.83e+06	1.37	0.0027	1.97e+06
#9aHSA (VHH, also called clone #9) VHH: DVQLVESGGGSVQAGGSLRLSCAAAEYTYLNSCLGWFRQAPGKEREGVATIYMVGGSTFYADSVKGRFTISRDNAKNTVYLMMNSLKPEDTAMYYCAAGSPARCLRRDPTTFNYWGQGTQVTVSS									1.82	1.52	1.09									
